{"source": "patent US20060263331A1", "about": "“Therapeutic use of tumor necrosis factor-alpha mutein” (priority 2002, published 2006)", "molecules": {"B1": {"name": "rhTNFm1: Recombinant human TNF-α mutant 1 expressed in E. coli; SEQ ID NO: 3 with N-terminal methionine (FIG. 1, 2) (protein)", "chain": "MRKRKPVAHVVANPQAEGQLQWLNRRANALLANGVELRDNQLVVPSEGLYLIYSQVLFKGQGCPSTHVLLTHTISRIAVSYQTKVNLLSAIKSPCQRETPEGAEAKPWYEPIYLGGVFQLEKGDRLSAEINRPDYLDFAESGQVYFGIIAQ", "modifications": "rhTNFm1 with Met"}}, "type_in_all_cases": "in vivo, human", "key": {"non-Hodgkin's lymphoma": {"test_system": "non-Hodgkin's lymphoma", "test": "Clinical monotherapy of rhTNFm1, non-Hodgkin's lymphoma", "conditions": "for Response Rate (%) CR / Response Rate (%) CR + PR / Response Rate (%) PR / Efficacy CR / Efficacy MR / Efficacy PD / Efficacy PR / Efficacy SD: Non-Hodgkin's, monotherapy; for Efficacy CR / Efficacy MR / Efficacy PD / Efficacy PR / Efficacy SD: patient count", "from_the_text": "(§1) Patients were selected based on the following criteria: i) measurable, objective tumor; ii) Karnofsky performance status (KPS)≧60; iii) age 18-75; iv) major organs in basically normal condition; v) no chemotherapy, radiotherapy and biologic therapy within the last month; vi) predicted ≧3 mon. survival; and vii) with patient's informed consent signed.\n(§2) Patients were excluded based on the following criteria: i) with history of allergic reactions to TNF or its derivatives; ii) pregnant or lactating women; iii) major organs with obvious damages or malfunction; iv) in ≧38° C. fever; v) with obvious tendency to haemorrhage; vi) with history of hypo- or hypertension; vii) with serious albuminemia; and viii) with strong tendency of disobedience or resistance.\n(§3) Patients were removed from the evaluation if any of the following conditions apply: i) treatment was not completed according to the protocol; ii) incomplete records; and iii) treatment using cancer therapies not in the protocol. However, patients who withdrew due to adverse reactions to the therapy were still included in the evaluation.\n(§4) The results of the treatment of tumors were evaluated based the following criteria: i) complete response (CR)—complete disappearance of observable pathological changes for at least 4 weeks; ii) partial response (PR)—reduction by ≧50% in tumor size measured by the product of the maximum circular and vertical dimensions for at least 4 weeks; iii) minimum response (MR)—reduction by >25% but <50% in tumor size measured by the product of the maximum circular and vertical dimensions for at least 4 weeks; iv) stabilized (SD)—reduction by ≦25% but without increase by >25% in tumor size measured by the product of the maximum circular and vertical dimensions for at least 4 weeks; and progression (PD): increase by >25% in tumor size in one or more sites.\n(§5) Patients rested on day 1 and 2. The treatment cycle was 3-4 weeks.\nTable II summaries results of the treatment of patients with malignant lymphoma, classified according to Hodgkin's disease and non-Hodgkin's lymphoma. Within each of category of lymphoma, patients were further classified into two groups: chemo-naïve and chemo-refractory. The chemo-naïve patients were patients who had never been treated with any anti-cancer agent previously whereas chemo-refractory patients were ones who failed treatment with one or more anti-cancer agent."}, "Kidney Cancer": {"test_system": "Kidney Cancer", "test": "Clinical monotherapy of rhTNFm1, kidney cancer", "conditions": "3 patients", "from_the_text": "as §1, §2, §3, §4, §5"}, "Liver Cancer": {"test_system": "Liver Cancer", "test": "Clinical monotherapy of rhTNFm1, liver cancer", "conditions": "12 patients", "from_the_text": "as §1, §2, §3, §4, §5"}, "[1]": {"test_system": "malignant pleural effusion", "test": "Clinical monotherapy of rhTNFm1, malignant pleural effusion", "conditions": "141 patients", "from_the_text": "as §1, §2, §3\n(§6) The results of the treatment of malignant pleural effusion (or hydrothorax) and ascites were evaluated based on a modified Millar standard (Millar J W, Hunfer A M, Home N W. (1980) “Inerapleural immunotherapy with CP”, in Recurrent Malignant Pleural Effusions. Thorax 35:856): i) complete response (CR)—complete disappearance of pleural effusion or ascites for at least 1 month; ii) partial response (PR)—reduction by at least 1 grade for at least 1 month; iii) minimum response (MR)—reduction in the levels of pleural effusion or ascites within the same grade for at least 1 month; iv) stabilized (SD)—levels of pleural effusion or ascites maintained within the same grade for at least 1 month; and progressed (PD): increase in the levels of pleural effusion or ascites compared with those before the treatment.\nas §5\n(§7) It is noted that Table III includes the patients who withdrew due to […], including 1 with malignant pleural effusion and 1 with malignant ascites. For patients with malignant ascites, rhTNFm1 was reconstituted in 30-50 ml normal saline and administered intraperitoneally (i.p.) at 2,000,000-3,000,000 units each time, 1-2 times a week, with 2-3 weeks as one treatment cycle. Optionally, rhTNFm1 was administered to the patients by alternating between i.p. injection and i.v. injection (at 600,000-900,000 unit/m^2 per day continuing for 28 days as one treatment cycle). On the day when rhTNFm1 was administered via i.p. injection, administration of rhTNFm1 via i.v. injection was stopped."}, "[2]": {"test_system": "malignant pleural effusion or ascites", "test": "Clinical monotherapy of rhTNFm1, malignant pleural effusion or ascites (Total)", "conditions": "169 patients", "from_the_text": "as §1, §2, §3, §6, §5, §7"}, "[3]": {"conditions": "Chemo-naïve Grade I & II, 4 patients"}, "[4]": {"conditions": "Chemo-naïve Grade III & IV, 5 patients"}}}
{"molecule": "B1", "values": [{"measurement": "Response Rate (%) CR", "setting": "non-Hodgkin's lymphoma; [3]", "value": 0, "unit": "%"}, {"measurement": "Response Rate (%) CR + PR", "setting": "non-Hodgkin's lymphoma; [3]", "value": 75, "unit": "%"}, {"measurement": "Response Rate (%) PR", "setting": "non-Hodgkin's lymphoma; [3]", "value": 75, "unit": "%"}, {"measurement": "Response Rate (%) CR", "setting": "non-Hodgkin's lymphoma; [4]", "value": 0, "unit": "%"}, {"measurement": "Response Rate (%) CR + PR", "setting": "non-Hodgkin's lymphoma; [4]", "value": 60, "unit": "%"}, {"measurement": "Response Rate (%) PR", "setting": "non-Hodgkin's lymphoma; [4]", "value": 60, "unit": "%"}, {"measurement": "Response Rate (%) CR", "setting": "non-Hodgkin's lymphoma; Chemo-naïve Total, 9 patients", "value": 0, "unit": "%"}, {"measurement": "Response Rate (%) CR + PR", "setting": "non-Hodgkin's lymphoma; Chemo-naïve Total, 9 patients", "value": 66.67, "unit": "%"}, {"measurement": "Response Rate (%) PR", "setting": "non-Hodgkin's lymphoma; Chemo-naïve Total, 9 patients", "value": 66.67, "unit": "%"}, {"measurement": "Response Rate (%) CR", "setting": "non-Hodgkin's lymphoma; Chemo-refractory, 56 patients", "value": 3.57, "unit": "%"}, {"measurement": "Response Rate (%) CR + PR", "setting": "non-Hodgkin's lymphoma; Chemo-refractory, 56 patients", "value": 25, "unit": "%"}, {"measurement": "Response Rate (%) PR", "setting": "non-Hodgkin's lymphoma; Chemo-refractory, 56 patients", "value": 21.43, "unit": "%"}, {"measurement": "quality of life score after the treatment", "setting": "non-Hodgkin's lymphoma; one NHL patient, before 50", "value": 60}, {"measurement": "KPS after the treatment", "setting": "non-Hodgkin's lymphoma; one NHL patient, before 90", "value": 90}, {"measurement": "Efficacy CR", "setting": "non-Hodgkin's lymphoma; [3]", "value": 0}, {"measurement": "Efficacy MR", "setting": "non-Hodgkin's lymphoma; [3]", "value": 1}, {"measurement": "Efficacy PD", "setting": "non-Hodgkin's lymphoma; [3]", "value": 0}, {"measurement": "Efficacy PR", "setting": "non-Hodgkin's lymphoma; [3]", "value": 3}, {"measurement": "Efficacy SD", "setting": "non-Hodgkin's lymphoma; [3]", "value": 0}, {"measurement": "Efficacy CR", "setting": "non-Hodgkin's lymphoma; [4]", "value": 0}, {"measurement": "Efficacy MR", "setting": "non-Hodgkin's lymphoma; [4]", "value": 0}, {"measurement": "Efficacy PD", "setting": "non-Hodgkin's lymphoma; [4]", "value": 0}, {"measurement": "Efficacy PR", "setting": "non-Hodgkin's lymphoma; [4]", "value": 3}, {"measurement": "Efficacy SD", "setting": "non-Hodgkin's lymphoma; [4]", "value": 2}, {"measurement": "Efficacy CR", "setting": "non-Hodgkin's lymphoma; Chemo-naïve Total, 9 patients", "value": 0}, {"measurement": "Efficacy MR", "setting": "non-Hodgkin's lymphoma; Chemo-naïve Total, 9 patients", "value": 1}, {"measurement": "Efficacy PD", "setting": "non-Hodgkin's lymphoma; Chemo-naïve Total, 9 patients", "value": 0}, {"measurement": "Efficacy PR", "setting": "non-Hodgkin's lymphoma; Chemo-naïve Total, 9 patients", "value": 6}, {"measurement": "Efficacy SD", "setting": "non-Hodgkin's lymphoma; Chemo-naïve Total, 9 patients", "value": 2}, {"measurement": "Efficacy MR", "setting": "non-Hodgkin's lymphoma; Chemo-refractory, 56 patients", "value": 7}, {"measurement": "Efficacy PD", "setting": "non-Hodgkin's lymphoma; Chemo-refractory, 56 patients", "value": 10}, {"measurement": "Efficacy PR", "setting": "non-Hodgkin's lymphoma; Chemo-refractory, 56 patients", "value": 12}, {"measurement": "Efficacy SD", "setting": "non-Hodgkin's lymphoma; Chemo-refractory, 56 patients", "value": 25}, {"measurement": "Response Rate (%) CR", "setting": "Kidney Cancer", "value": 0.00, "unit": "%"}, {"measurement": "Response Rate (%) CR + PR", "setting": "Kidney Cancer", "value": 0.00, "unit": "%"}, {"measurement": "Response Rate (%) PR", "setting": "Kidney Cancer", "value": 0.00, "unit": "%"}, {"measurement": "Efficacy CR", "setting": "Kidney Cancer; patient count", "value": 0}, {"measurement": "Efficacy MR", "setting": "Kidney Cancer; patient count", "value": 1}, {"measurement": "Efficacy PD", "setting": "Kidney Cancer; patient count", "value": 1}, {"measurement": "Efficacy PR", "setting": "Kidney Cancer; patient count", "value": 0}, {"measurement": "Efficacy SD", "setting": "Kidney Cancer; patient count", "value": 1}, {"measurement": "Response Rate (%) CR", "setting": "Liver Cancer", "value": 0.00, "unit": "%"}, {"measurement": "Response Rate (%) CR + PR", "setting": "Liver Cancer", "value": 0.00, "unit": "%"}, {"measurement": "Response Rate (%) PR", "setting": "Liver Cancer", "value": 0.00, "unit": "%"}, {"measurement": "Efficacy CR", "setting": "Liver Cancer; patient count", "value": 0}, {"measurement": "Efficacy MR", "setting": "Liver Cancer; patient count", "value": 0}, {"measurement": "Efficacy PD", "setting": "Liver Cancer; patient count", "value": 2}, {"measurement": "Efficacy PR", "setting": "Liver Cancer; patient count", "value": 0}, {"measurement": "Efficacy SD", "setting": "Liver Cancer; patient count", "value": 10}, {"measurement": "Response Rate (%) CR", "setting": "[1]", "value": 9.93, "unit": "%"}, {"measurement": "Response Rate (%) PR", "setting": "[1]", "value": 64.54, "unit": "%"}, {"measurement": "Efficacy CR", "setting": "[1]; patient count", "value": 14}, {"measurement": "Efficacy MR", "setting": "[1]; patient count", "value": 9}, {"measurement": "Efficacy PD", "setting": "[1]; patient count", "value": 1}, {"measurement": "Efficacy PR", "setting": "[1]; patient count", "value": 91}, {"measurement": "Efficacy SD", "setting": "[1]; patient count", "value": 26}, {"measurement": "Response Rate (%) CR", "setting": "[2]", "value": 8.88, "unit": "%"}, {"measurement": "Response Rate (%) CR + PR", "setting": "[2]", "value": 69.23, "unit": "%"}, {"measurement": "Response Rate (%) PR", "setting": "[2]", "value": 60.36, "unit": "%"}, {"measurement": "Efficacy CR", "setting": "[2]; patient count", "value": 15}, {"measurement": "Efficacy MR", "setting": "[2]; patient count", "value": 12}, {"measurement": "Efficacy PD", "setting": "[2]; patient count", "value": 2}, {"measurement": "Efficacy PR", "setting": "[2]; patient count", "value": 102}, {"measurement": "Efficacy SD", "setting": "[2]; patient count", "value": 38}]}
